# Molecular target: recombinant human IL-17RA Fc fusion protein (R&D Systems 177-IR-100) (UniProt Q96F46 33-320)
# Test: BIAcore
# Chain of recombinant human IL-17RA Fc fusion protein (R&D Systems 177-IR-100) (Q96F46 33-320): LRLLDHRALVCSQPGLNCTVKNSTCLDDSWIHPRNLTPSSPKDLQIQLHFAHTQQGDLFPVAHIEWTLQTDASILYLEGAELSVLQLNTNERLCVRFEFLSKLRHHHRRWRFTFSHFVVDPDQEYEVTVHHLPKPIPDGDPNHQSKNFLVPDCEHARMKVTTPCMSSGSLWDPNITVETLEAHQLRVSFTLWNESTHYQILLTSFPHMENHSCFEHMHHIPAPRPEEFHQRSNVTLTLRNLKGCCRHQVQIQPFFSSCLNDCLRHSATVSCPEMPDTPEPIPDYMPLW
row,koff,Binder
1,5.79e-05 s⁻¹,VH clone 1.2 (VHH) VHH: EVQLVESGGGLVQPGRSLRLSCAASGFTFDDYAMHWVRQAPGKGLEWVSGISWNSGRMDYADSVKGRFTISRDNAKNSLYLQMNSLRAEDTALYYCAKEKGLGYCRGGSCSYFDYRGQGTLVTVSS
2,5.83e-05 s⁻¹,VH clone 1.1 (VHH) VHH: QVQLVESGGGLVQPGRSLRLSCAASGFTFDDYAMHWVRQAPGKGLEWVSGISWNSGRMDYADSVKGRFTISRDNAKKSLYLQMNSLRAEDTAMYYCAKEKGLGFCRGGSCSYFDYRGQGTLVTVSS
3,0.00384 s⁻¹,VH clone 2.1 (VHH) VHH: QVQLVQSGAEVKKPGASVKVSCKASGYPFTSYDINWVRQATGQSLEWMGWMNPNSGDTVYAQKFQGRVTMTRNTSISTAYMELSSLRSEDTAVYFCARGRRDDWKNNYWGQGTLVTVSS

# Reference: US20180215829A1 (published 2018)
